The values below come from patent publication US20140017267A1, “METALLOPROTEINASE OLIGOPEPTIDES AND THEIR THERAPEUTIC USE” (priority 2012, published 2014).

Data set [1] in a line: Testing of peptide solubility. The format is physicochemical.
The subject of a further data set is BALB/c female mouse. In words: Immune response to individual peptide: immunization of mice, indirect solid-phase immunoenzymatic assay of antiserum (A450). The settings on record: for OD 450 Mean values (n = 3-5) for dilution 1:10,000: antiserum of mice immunized i.p. with 100 μg peptide+Str-HRP, day 38 bleed, serum dilution 1:10,000; for immune response: comparison among the 17 peptides. The format is in vivo. The method, then: Peptides were dissolved in appropriate volume 8M Urea and additional solution. Final concentration of peptide-Str-HRP solution was 0.8 mg/ml and 0.6 mg/ml for peptide and Str-HRP, respectively. After dissolving, 4 aliquotes in 0.2 ml portions were taken from each peptide solution, mixed with 0.6 ml Str-HRP and incubated over night at +4° C. Conjugate peptide with carrier protein (Str-HRP) was frozen and stored at −20° C. until further use. Final concentration of urea in peptide-Str-HRP solution was 2M for all peptides.
Day 0: Immunization with complete Freund's adjuvant Day 7: Booster with incomplete Freund's adjuvant Day 14: Booster with incomplete Freund's adjuvant Day 28: Booster with incomplete Freund's adjuvant Day 38: Terminal bleed
Method of Immunization: Frozen 0.8 ml aliquotes of peptide+Str-HRP conjugate were thawed at room temperature (RT) and mixed with 0.8 ml of appropriate adjuvant. Adjuvant was added and mixed by vortexing immediately before injections were given. Immunization was done by using intra peritoneal injections with 100 μg peptide per animal in final volume 250 μl of 1:1 (v:v) peptide+Str-HRP:adjuvant. Five animals were used per peptide.
Preparation of serum: At 38 days, the mouse was bled. Blood was collected in 2-ml microcentrifuge tube and the blood was allowed to clot at room temperature for 1 hour. Centrifugation using the microcentrifuge tube with the clot inside was done for 15 min at 2500 g and serum was collected. Volume for each sample was no less than 400 μl. The serum was stored at −20° C.
Testing immune response to individual peptide: Determination of mouse antibodies to peptide based on indirect solid-phase immunoenzymatic assay with avidin on solid-phase was performed. Materials used were 96-well polystyrene plates high binding (#9018 Costar, USA), all solution for ELISA: sample diluent (10 mM sodium phosphate, 500 mM NaCl, 0.5% BSA, 0.05% Tween-20, pH 7.4), conjugate diluent (10 mM sodium phosphate, 150 mM NaCl, 0.5% BSA, 0.05% Tween-20, pH 7.4), wash fluid (10 mM sodium phosphate, 300 mM NaCl, 0.05% Tween-20, pH 7.4), substrate buffer (50 mM sodium citrate and hydrogen peroxide, pH 5.0), TMB solution (3,3′,5,5′-tetramethylbenzidine), stop solution (2M sulphuric acid) were taken from EIA Kit for detection of antibody to HIV “Peptoscreen-2” (Amercard Ltd, Russia), conjugate of rabbit antibody to mouse IgG with HRPO (custom made), avidin from egg white (Imtek, Russia). Negative controls of 5 sera were pooled from the nonimmune BALB/c female mouse. Dispensing of solutions with Finnpipette digital adjustable volume pipettes 0.5-10 μl, 5-40 μl, 20-200 μl, 200-1000 μl, 1-5 ml and 12-channel pipettes 5-50 μl, 50-200 μl. Plate washer ZLE201 (Amersham Inc., UK), incubator at 37° C.—Imperial II (Lab-Line Instruments Inc., USA), EIA plate reader—Luminometer-Photometer LM01A (Immunotech, Beckman Coulter Company, USA).
Test procedure: Peptides for binding on the avidin-coated plate were taken from test-solution for determining the solubility of peptides (chapter 1.3., table 1 and 2) and were dissolved up to 2 mM in sample diluents immediately before the test procedure as shown in Table 3.
EIA plates were coated by adding to a well containing 100 μl of avidin dissolved 10 μg/ml in 50 mM carbonate buffer, pH 9.5 and incubated for 20 h at 20° C. The plates were washed 4 times with wash fluid. Peptides 2 mM, […] in sample diluent and incubated 60 min at 37° C. Control wells contain avidin. The plates were washed 4 times with wash fluid. Serum from each mouse and negative control were diluted 1:100, 1:1000 and 1:10000 in sample diluents and were added to the wells, coated by the corresponding peptide (100 μl per well) and incubated for 1 h at 37° C. The plates were washed 4 times with wash fluid. Conjugates of rabbit anti-mouse IgG antibody with HRPO (dilution of 1:3000 in conjugate diluent) were added to the wells (100 μl per well). The plates were incubated for 0.5 h at 37° C. […]

Data set [2] is described as follows: Testing of peptide solubility. The format is physicochemical. The settings on record: 8M Urea, final concentration 1.1 mg/ml (first solubility table, headed TABLE 1). The method, then:
Testing of peptide solubility: Data for peptide solubility are represented in Table 1 and 2. Peptides SEQ ID 5-21 was dissolved in 8M Urea to a final concentration of 1.1 mg/ml.

[3] abbreviates: 8M Urea, larger weights (TABLE 2), no additional solution.

In the case of “SEQ ID 5: Mouse MMP-9 synthetic oligopeptide, sequence DKDGKFGF”, the Solubility result in data set [1] (setting [3]) and in data set [2] was “Soluble” in each case. Besides, the “OD 450 Mean values (n = 3-5) for dilution 1:10,000” value (“OD 450 Mean values” for short) with BALB/c female mouse was 0.845.
Regarding “SEQ ID 14: European Carp MMP-9 synthetic oligopeptide, sequence CHFPFLFEGTSYSSC”, the Solubility entry in data set [1] (setting [3]) and in data set [2] was “Soluble” in each case. Further, the “OD 450 Mean values” value with BALB/c female mouse stood at 0.394.
For “SEQ ID 10: Rabbit MMP-9 synthetic oligopeptide, sequence DTDRRFGF”, the Solubility entry in data set [1] (setting [3]) and in data set [2] was “Soluble” in each case.
For the substance “SEQ ID 19: Mouse MMP-9 synthetic oligopeptide, sequence DQDKLYGFCPTRVDA (printed identical to SEQ ID 17)”, the Solubility result in data set [1] (setting [3]) and in data set [2] was “Soluble” each time. Also, the “OD 450 Mean values” value with BALB/c female mouse is reported as 0.818.
On to “SEQ ID 13: Chicken MMP-9 synthetic oligopeptide, sequence CHFPFIFEGRSYSRC”, for which the Solubility result in data set [1] (setting [3]) and in data set [2] was “Soluble” in each case. The immune response result in the data set on BALB/c female mouse is given as “most active”.
Take “SEQ ID 15: Pufferfish MMP-9 synthetic oligopeptide, sequence CHFPFRFQNKPYKHC”: the Solubility result in data set [1] (setting [3]) and in data set [2] was “Soluble” throughout. Also, in the data set on BALB/c female mouse, the immune response entry was “most active”.
For “SEQ ID 6: Bovine MMP-9 synthetic oligopeptide, sequence DADRQFGF”, the Solubility entry in data set [1] (setting [3]) and in data set [2] was “Soluble” in each case. Further, the “OD 450 Mean values” value in the data set with BALB/c female mouse amounted to 0.096.
Turning to “SEQ ID 16: Flounder MMP-9 synthetic oligopeptide, sequence CHFPFTFEGKSYTSC”, the Solubility entry in data set [1] (setting [3]) and in data set [2] was “Soluble” throughout. Moreover, in the data set with BALB/c female mouse, the “OD 450 Mean values” value is given as 0.823.
Turning to “SEQ ID 17: Bovine MMP-9 synthetic oligopeptide, sequence DQDKLYGFCPTRVDA”, the Solubility entry in data set [1] (setting [3]) and in data set [2] was “Soluble” throughout. Moreover, the “OD 450 Mean values” value in the data set with BALB/c female mouse amounted to 0.780.
Regarding “SEQ ID 21: Rabbit MMP-9 synthetic oligopeptide, sequence DKDKLYGFCPTRADS”, the Solubility entry in data set [1] (setting [3]) and in data set [2] was “Soluble” in each case. Moreover, the “OD 450 Mean values” value with BALB/c female mouse came to 0.411.
On to “H-RILAVERYLKDQQLLGIWGCSGKLICTTAVPWNAS-OH (cysteine pairing not given here) [SP35, reference compound]”, for which the Solubility entry in data set [1] (setting [3]) is reported as “Soluble”.
Consider “SEQ ID 12: Rat MMP-9 synthetic oligopeptide, sequence CHFPFTFEGRSYLSC”, for which the Solubility entry in data set [1] (8M Urea plus equal volume 0.1M Na-carbonate buffer, pH 9.5 (TABLE 2)) is “Soluble”; in data set [2], “Insoluble”. Further, in the data set on BALB/c female mouse, the “OD 450 Mean values” value is recorded as 0.661.
Regarding “SEQ ID 18: Rat MMP-9 synthetic oligopeptide, sequence DKADGFCPTRADVTV”, the Solubility result in data set [1] (setting [3]) and in data set [2] was “Soluble” in each case. The “OD 450 Mean values” value with BALB/c female mouse turned out to be 0.138.
For “SEQ ID 7: Rat MMP-9 synthetic oligopeptide, sequence DTDRKYGF”, the Solubility result in data set [1] (setting [3]) and in data set [2] was “Soluble” each time. Besides, in the data set with BALB/c female mouse, the “OD 450 Mean values” value stood at 1.610.
As for “SEQ ID 11: Mouse MMP-9 synthetic oligopeptide, sequence DKDGKFGF (printed identical to SEQ ID 5)”, the Solubility result in data set [1] (setting [3]) and in data set [2] was “Soluble” throughout. Moreover, the “OD 450 Mean values” value with BALB/c female mouse is given as 0.183.
As to “SEQ ID 9: Pufferfish MMP-9 synthetic oligopeptide, sequence DKDKKYGF”, the Solubility entry in data set [1] (setting [3]) and in data set [2] was “Soluble” in each case. Also, the “OD 450 Mean values” value with BALB/c female mouse is on record as 0.131.
As for “SEQ ID 8: Carp MMP-9 synthetic oligopeptide, sequence DKDKIFGF”, the Solubility entry in data set [1] (setting [3]) and in data set [2] was “Soluble” throughout. Also, the “OD 450 Mean values” value in the data set on BALB/c female mouse is given as 0.097.
For “SEQ ID 20: Carp MMP-9 synthetic oligopeptide, sequence DKKYGFCPNRDTAVI”, the Solubility entry in data set [1] (setting [3]) and in data set [2] was “Soluble” each time. Moreover, the “OD 450 Mean values” value with BALB/c female mouse stood at 0.138.
